Experiment [1] deals with α-synuclein fibrils (human) (UniProt P37840). The experiment is described as follows: inhibition ELISA; fibrils against monomers.
Experiment [2] shares this target. Put plainly: SPR, BIAcore X100; fibrils immobilised on CM5, mAb injected at 0.01-10 nM.

pKd: −log10 of the molar value.

The substance “Syn-1 (Mouse anti-α-synuclein; BD Bioscience) (antibody)” registered a Fold Affinity to Fibrils in experiment [1] of 0.476 fold.
In experiment [2], “mAb 211 (Santa Cruz Biotechnology) (antibody)” gave a pKd of 8.59, a koff of 0.000422 s⁻¹ and a kon of 165000 M⁻¹ s⁻¹.

The record behind these values is patent US20140241984A1.
